# Reference: patent publication US8404647B2, “Peptidylarginine deiminase (PAD) inhibitors” (Chiralix B.V., priority 2008, dated 2013)
# Numbered stars: 1 amine (or outer) side, 2 acyl side, 3 side chain; on linkers, the order of the positions; unused ones are H or OH. Square brackets hold non-standard residues; d marks the D form. Peptide text beside a SMILES is read from it. * marks the point of attachment. CA = chloroamidine (on ornithine side chain, O(CA) = ornithine chloroamidine), N=C(CCl)*; Orn(fluoroacetimidoyl) = N=C(CF)NCCC[C@H](N)C(=O)O; X1 = N=C(CCl)NCCC[C@H](N[*:1])C(=O)[*:2]; Orn = NCCC[C@H](N)C(=O)O; Moc = COC(=O)*
# What was measured:
# caspase-3 = molecular target: T1, caspase-3 (Homo sapiens, UniProt P42574); assay: Caspase-3 activity assay (Ac-DEVDpNA cleavage); format: biochemical, mammalian; conditions: enzyme treated with inhibitor 10 min at room temperature
# T1 sequence (P42574 29-175 limits assumed): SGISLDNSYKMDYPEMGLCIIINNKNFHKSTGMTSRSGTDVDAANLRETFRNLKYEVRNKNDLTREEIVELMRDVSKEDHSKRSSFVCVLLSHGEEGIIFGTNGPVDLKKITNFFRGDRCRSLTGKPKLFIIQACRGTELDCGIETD
# T1 sequence (P42574 176-277 limits assumed): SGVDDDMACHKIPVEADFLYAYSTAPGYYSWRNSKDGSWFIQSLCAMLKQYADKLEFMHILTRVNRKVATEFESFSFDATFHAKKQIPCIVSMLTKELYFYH
# Experimental: Upon incubation of purified recombinant caspase-3 with its commercially available substrate: acetyl-Asp-Glu-Val-Asp-p-nitroanilide (Ac-DEVDpNA) SEQ ID NO: 145 in CFS buffer (220 mM mannitol, 68 mM sucrose, 2mM NaCl, 2.5 mM KH2PO4, 10 mM HEPES, pH 7.4 plus a cocktail of protease inhibitors), the substrate is cleaved, pNA is released and its absorbance at 405 nm can be monitored.
# transglutaminase (TG) = transglutaminase (TG) (UniProt P08587); assay: biochemical
# transglutaminase (TG), sequence (P08587 whole entry): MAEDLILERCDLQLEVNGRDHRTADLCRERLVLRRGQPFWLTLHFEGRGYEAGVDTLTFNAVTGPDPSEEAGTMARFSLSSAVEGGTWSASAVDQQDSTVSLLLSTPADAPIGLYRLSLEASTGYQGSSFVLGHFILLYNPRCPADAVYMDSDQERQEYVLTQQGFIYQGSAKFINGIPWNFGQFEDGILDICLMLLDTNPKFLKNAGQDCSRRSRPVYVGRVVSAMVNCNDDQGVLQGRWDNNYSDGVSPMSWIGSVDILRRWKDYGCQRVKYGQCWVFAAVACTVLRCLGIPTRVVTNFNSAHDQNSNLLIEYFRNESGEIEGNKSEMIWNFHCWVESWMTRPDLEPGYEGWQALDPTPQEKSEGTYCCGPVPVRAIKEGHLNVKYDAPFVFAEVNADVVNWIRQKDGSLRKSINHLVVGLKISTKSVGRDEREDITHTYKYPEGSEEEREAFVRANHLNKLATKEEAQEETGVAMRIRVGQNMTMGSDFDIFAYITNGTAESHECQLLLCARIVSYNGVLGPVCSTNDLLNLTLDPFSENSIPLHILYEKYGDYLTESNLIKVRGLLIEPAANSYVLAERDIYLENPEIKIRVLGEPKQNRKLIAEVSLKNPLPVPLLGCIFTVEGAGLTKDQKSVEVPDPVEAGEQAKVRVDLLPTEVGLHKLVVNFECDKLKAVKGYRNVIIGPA
# Experimental: (§2) The activities of CK and TG (both purchased from Sigma-Aldrich (Schnelldorf, Germany) were assayed with the help of the commercial kits CK NAC activated liquiUV test form
# (§3) Human GmbH (Wiesbaden, Germany) and the Enzymatic Assay of [sequence] from Sigma-Aldrich (Schnelldorf, Germany) according to the manufacturers' instructions.
# papain = papain (Carica papaya, UniProt P00784); assay: biochemical
# papain, sequence (P00784 134-345): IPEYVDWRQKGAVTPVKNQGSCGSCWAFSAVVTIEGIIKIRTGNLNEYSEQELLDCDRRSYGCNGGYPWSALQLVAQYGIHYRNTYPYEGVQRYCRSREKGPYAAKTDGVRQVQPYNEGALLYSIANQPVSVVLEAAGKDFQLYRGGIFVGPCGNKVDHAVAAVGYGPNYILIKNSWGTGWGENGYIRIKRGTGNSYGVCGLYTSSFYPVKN
# Experimental: The activity of papain was assessed using a similar experimental setting, based on its cleavage of pGlu-Phe-Leu-pNA in reaction buffer (25 mM Tris-HCL, pH 7.6; 150 mM NaCl).
# His-tagged PAD4 = His-tagged PAD4 (Homo sapiens, UniProt Q9UM07); assay: Binding of biotinylated inhibitor peptide to His-tagged PAD4 (SDS-PAGE and blot); conditions: 3 h at 37° C.; binding resistant to boiling in the presence of SDS
# His-tagged PAD4, sequence (Q9UM07 whole entry): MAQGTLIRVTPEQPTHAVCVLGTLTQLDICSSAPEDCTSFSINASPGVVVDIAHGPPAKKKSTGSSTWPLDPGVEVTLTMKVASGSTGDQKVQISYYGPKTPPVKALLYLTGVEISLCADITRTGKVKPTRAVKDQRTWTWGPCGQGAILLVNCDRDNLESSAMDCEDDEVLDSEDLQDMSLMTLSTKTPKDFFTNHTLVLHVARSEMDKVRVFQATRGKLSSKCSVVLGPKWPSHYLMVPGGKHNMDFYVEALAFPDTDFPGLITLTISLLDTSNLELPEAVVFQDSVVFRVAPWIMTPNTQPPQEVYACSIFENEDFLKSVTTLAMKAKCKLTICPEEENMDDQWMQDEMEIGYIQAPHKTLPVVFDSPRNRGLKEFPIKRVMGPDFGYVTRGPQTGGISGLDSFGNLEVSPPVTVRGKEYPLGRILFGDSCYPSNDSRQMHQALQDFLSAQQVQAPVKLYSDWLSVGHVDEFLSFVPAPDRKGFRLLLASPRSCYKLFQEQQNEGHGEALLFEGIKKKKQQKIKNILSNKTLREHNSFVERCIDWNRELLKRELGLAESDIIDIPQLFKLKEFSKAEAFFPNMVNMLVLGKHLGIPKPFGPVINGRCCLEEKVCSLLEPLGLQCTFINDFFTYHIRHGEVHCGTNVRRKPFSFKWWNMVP
# Experimental: In the following experiments mixtures of various quantities of biotinylated inhibitor peptide (biotin-Ahx-D-S-K-K-H-D-O(FA)-D-F-L-Y-S-D-amide (SEQ ID NO: 112), O(FA)=ornithine fluoroamidine, Ahx=6-aminohexanoic acid) and a fixed amount of His-tagged PAD4 were analysed. In short, 10 μl PAD4 solution was mixed with 10 μl inhibitor solution and incubated for 3 h at 37° C. After the addition of loading buffer containing SDS, samples were either boiled for 5 minutes or kept at room temperature. Samples were loaded on a 10% polyacrylamide gel and subjected to electrophoresis (about 1 h). Proteins were transferred to a PVDF membrane and developed with either streptavidin-alkaline phosphatase conjugate (FIG. 2) or with mouse-anti-His antibody followed by goat-anti-mouse alkaline phosphatase conjugate (FIG. 3), followed by visualisation using NBT/BCIP. In Table 18 the samples are specified.
# In FIG. 2 the biotin group of the inhibitor is visualised. Only lanes where the biotinylated inhibitor is present show a coloured band. The position of the bands is around the expected molecular weight of PAD4 (77 kDa). This indicates binding of the biotinylated peptide to PAD4. This binding is not broken by boiling of the sample in the presence of SDS. In FIG. 3 the His-tag of PAD4 is visualised. Only lanes where PAD4 is present show a coloured band. […]
# creatine kinase (CK) = assay: Creatine kinase activity (CK NAC activated liquiUV test); format: biochemical, mammalian; conditions: enzyme treated with inhibitor 10 min at room temperature
# Experimental: as §2, §3
# [1] = system: collagen antibody induced arthritis (CAIA); assay: Collagen antibody induced arthritis (CAIA) mouse model; format: in vivo; conditions: 0.5 mg daily i.v. day 3 to 11 except day 9, male DBA/J1 mice, FIG. 6
# Experimental: FIG. 6. The collagen antibody induced arthritis (CAIA) model (MQR; 18.101) was used to test the therapeutic effect of the PAD-inhibitor CXP5.7-011 (SEQ ID NO:143). At day 0 mice were injected i.p. with 2.8 mg anti-collagen antibodies. LPS (25 μg/mouse) was administered on day 3 via i.p. injection. The inhibitor (0.5 mg CXP5.7-011 in 200 μl PBS containing 20 mM sodium phosphate), or 200 μl PBS containing 20 mM sodium phosphate as the placebo, was administered daily from day 3 until day 11 (with the exception of day 9). Animals were scored daily until day 14 for degree of inflammation. Mean arthritis score per experimental group (5 mice) is indicated at each time point.
# One of the peptide based human PAD 2 and PAD 4 inhibitors was tested in the commercially available collagen antibody induced arthritis (CAIA) mouse model (Modiquest research B.V., product number 18.101). Experimental procedures were performed according to manufacturers specifications to induce arthritis in mice (World Wide Web (www) modiquestresearch.n1/shop/files/18.101-50MG%20 —2007.08.22.pdf) In short, on day 0 male DBA/J1 mice (5mice/group) of the age of 8 weeks have been injected i.p. with a mix of 8 anti-collagen antibodies (2.8 mg/mouse). […]
# Animals where scored daily for degree of inflammation in their paws. […]
# PAD2 [2] = conditions: low doses, in vitro; cited from earlier work
# PAD4 [3] = molecular target: T2, PAD4 (Homo sapiens, UniProt Q9UM07); assay: Conversion (R to Cit) of substrate peptides by PAD4, mass spectrometry; format: biochemical
# T2 sequence (Q9UM07 whole entry): as above
# PAD2 [4] = molecular target: T3, PAD2 (Homo sapiens, UniProt Q9Y2J8); assay: Conversion (R to Cit) of substrate peptides by PAD2, mass spectrometry; format: biochemical
# T3 sequence (Q9Y2J8 whole entry): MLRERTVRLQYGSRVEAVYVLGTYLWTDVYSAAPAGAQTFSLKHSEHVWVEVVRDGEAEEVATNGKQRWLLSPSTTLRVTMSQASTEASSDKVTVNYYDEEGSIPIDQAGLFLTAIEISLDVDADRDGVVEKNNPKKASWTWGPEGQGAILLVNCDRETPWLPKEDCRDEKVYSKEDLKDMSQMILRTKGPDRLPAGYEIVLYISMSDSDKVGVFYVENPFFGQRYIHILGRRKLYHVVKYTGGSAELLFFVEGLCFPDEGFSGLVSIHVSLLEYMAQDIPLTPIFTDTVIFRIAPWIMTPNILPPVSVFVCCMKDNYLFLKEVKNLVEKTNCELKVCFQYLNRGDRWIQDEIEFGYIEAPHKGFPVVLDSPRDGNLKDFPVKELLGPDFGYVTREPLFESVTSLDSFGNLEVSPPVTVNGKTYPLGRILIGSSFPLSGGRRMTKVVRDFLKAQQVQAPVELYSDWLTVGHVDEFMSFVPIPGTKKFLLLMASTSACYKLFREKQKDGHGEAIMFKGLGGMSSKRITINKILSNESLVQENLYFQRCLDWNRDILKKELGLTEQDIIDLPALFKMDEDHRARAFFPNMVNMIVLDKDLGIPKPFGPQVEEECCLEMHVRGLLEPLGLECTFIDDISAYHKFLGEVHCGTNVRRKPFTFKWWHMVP
# Procedure, shortened: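 Candidate peptides incubated with human PAD2 for several hours at 37° C, quenched with acetic acid and analysed by Q-TOF MS against untreated peptide. Arg-to-Cit conversion (ΔM=0.98 Da) computed on 2+ and 3+ ions, averaged weighted by relative peak height.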
# PAD2 [5] = molecular target: T3, PAD2; assay: Citrullination of synthetic peptides by recombinant human PAD2 (MALDI-TOF and ESI-Q-TOF mass spectrometry); format: biochemical; set-up: His6; made in house; conditions: for PAD2 conversion: Arg: share of peptide still unconverted (Arg); for PAD2 conversion: 1 Cit: share of peptide with one citrulline; for PAD2 conversion: 2 Cit: share of peptide with two citrullines
# Experimental: (§1) Subsequently, the citrullinated proteins were isolated from the cell lysates by immunoaffinity purification using the RA3 single chain antibody fragment (scFv), which is specific for citrullinated epitopes {Raats et al., 2003}. After digestion of the purified proteins with trypsin, the amino acid sequence of the resulting peptides was determined by tandem mass spectrometry. Based upon the mass spectrometry data the peptides containing citrullinated residues were identified. In total 90 and 57 citrullinated peptides were identified in proteins derived from the COS-1 cells expressing PAD2 and PAD4, respectively, and 107 and 38 citrullinated peptides were obtained from HEK-293 cell material for PAD2 and PAD4, respectively. The frequency of amino acids at each of the positions between 5 residues N-terminal and 5 residues C-terminal from a citrullinated residue was derived from the combined sequences of these sites and is illustrated in Table 1. […] The efficiency by which these peptides were citrullinated by the human PAD2 and PAD4 enzymes was investigated by incubating them with the bacterially expressed, His6-tagged and IMAC purified, recombinant enzymes, followed by analysis of the products by both MALDI-TOF and ESI-Q-TOF mass spectrometry.
# PAD4 [6] = molecular target: T2, PAD4; assay: Citrullination of synthetic peptides by recombinant human PAD4 (MALDI-TOF and ESI-Q-TOF mass spectrometry); format: biochemical; set-up: His6; made in house; conditions: for PAD4 conversion: Arg: share of peptide still unconverted (Arg); for PAD4 conversion: 1 Cit: share of peptide with one citrulline; for PAD4 conversion: 2 Cit: share of peptide with two citrullines
# Experimental: as §1
# PAD2 [7] = molecular target: T3, PAD2; assay: ABAP antibody based PAD enzyme activity assay, PAD2; format: biochemical; conditions: Table 19, first 8 pentapeptide inhibitors
# Experimental: These 8 pentapeptides inhibitors are represented by SEQ ID NO: 12-19. (O(FA) stands for ornithine fluoroamidine, O(CA) stands for ornithine chloroamidine). The IC50's for human PAD2 and 4 as well as for mouse PAD2 and 4 were determined in an assay developed by Zendman and others {Zendman et al. 2007}. Of this series the inhibitor T-D-O(FA)-G-S(CXP5-101) (SEQ ID NO: 12) was the best PAD2 and PAD4 inhibitor. Subsequently, several modifications were brought to this lead compound.
# To determine inhibition of PAD2 and PAD4 activity, the commercially available Antibody based PAD enzyme activity assay from ModiQuest Research (cat no: MQ17.101) has been used according to manufacturers specifications.
# PAD enzymes (amounts that give maximum deimination) were mixed with PAD inhibitors at the following concentrations (4.9, 9.8, 19.5, 39, 78.1, 156, 313, 625, 1250, 2500 and 5000 μM) and pre-incubated for 30 minutes at 37° C. After pre-incubation, mixtures of PAD enzymes and inhibitors were added to the wells for an additional incubation of 75 minutes. After thoroughly washing the 96-well plates with PBS, the conversion of the arginines into citrullines of the coating was measured with the use of a propriety anti-citrulline-antibody, followed by a secondary HRP-labelled antibody recognizing the anti-citrulline antibody. Incubation with both antibodies was performed for 1 h at 37° C. […]
compound,measurement,setting,value
"CC(=O)N[C@@H](CCCCN)C(=O)N[C@@H](Cc1c[nH]c2ccccc12)C(=O)N[C@@H](Cc1c[nH]cn1)C(=O)N[C@@H](CCCNC(=N)CF)C(=O)N[C@@H](CC(=O)O)C(=O)N[C@@H](Cc1ccccc1)C(=O)N[C@@H](Cc1ccccc1)C(N)=O [Peptide 0748-09FA, Ac-K-W-H-O(FA)-D-F-F-amide] (Ac-KWH[Orn(fluoroacetimidoyl)]DFF-NH2)",IC50,caspase-3,> 1000 µM
same,IC50,transglutaminase (TG),> 1000 µM
same,IC50,papain,> 2000 µM
biotin-Ahx-D-S-K-K-H-D-O(FA)-D-F-L-Y-S-D-amide [biotinylated inhibitory peptide],mode of binding of the inhibitor to PAD4,His-tagged PAD4,covalent binding of the inhibitor to PAD4
"CC(=O)NCC(=O)N[C@@H](CC(=O)O)C(=O)N[C@@H](CCCNC(=N)CCl)C(=O)NCC(=O)N[C@@H](CO)C(=O)O [CXP5.2-078, Ac-G-D-O(CA)-G-S] (Ac-GD[X1]GS-OH; N-terminus and C-terminus assumed)",IC50,creatine kinase (CK),780 µM
Ac-Y-D-O(CA)-G-S-amide (Ac-YD[Orn](CA)GS-NH2; SMILES CC(=O)N[C@@H](Cc1ccc(O)cc1)C(=O)N[C@@H](CC(=O)O)C(=O)N[C@@H](CCCNC(=N)CCl)C(=O)NCC(=O)N[C@@H](CO)C(N)=O) [CXP5.7-011],degree of inflammation (mean arthritis score),[1],clearly demonstrates the inhibitory potential of the inhibitor in this model
CC(=O)O[C@H]1C(=O)[C@@]2(C)[C@H]([C@H](OC(=O)c3ccccc3)[C@]3(O)C[C@H](OC(=O)[C@H](O)[C@@H](NC(=O)c4ccccc4)c4ccccc4)C(C)=C1C3(C)C)[C@]1(OC(C)=O)CO[C@@H]1C[C@@H]2O [paclitaxel],inhibition of citrullination of MBP by PAD2,PAD2 [2],can inhibit citrullination of MBP by PAD2 in vitro
"COC(=O)N[C@H](C(=O)N[C@@H](CC(=O)O)C(=O)N[C@@H](CCCNC(=N)CF)C(=O)NCC(=O)N[C@@H](CO)C(=O)OC)[C@@H](C)O [CXP5-101, MeO2C-T-D-O(FA)-G-S-methylester] (Moc-TD[Orn(fluoroacetimidoyl)]GS-OMe)",IC50,creatine kinase (CK),780 µM
"D-S-Q-F-A-F-R-G-A-S-A-S-D (DSQFAFRGASASD) [Peptide 0308-29, reference compound]",Conversion (%),"PAD4 [3]; Table 4, 13-mer peptides, PAD4",30% (=L1)
same,Conversion by PAD4 (%),PAD4 [3]; Table 10,<20(=L1) %
same,conversion of L1 analogs by PAD4,"PAD4 [3]; relative to conversion of L1 under standard conditions (L1 = 100), single substitution at positions -4 to 4",100%
same,Conversion (%),"PAD2 [4]; Table 9, PAD2",45 (=L1) %
same,Conversion by PAD2 (%),PAD2 [4]; Table 10,<20(=L1) %
same,conversion of L1 analogs by PAD2,"PAD2 [4]; relative to conversion of L1 (L1 = 100), single substitution at positions -4 to 4",100%
same,PAD2 conversion: Arg,PAD2 [5],68%
same,PAD2 conversion: 1 Cit,PAD2 [5],32%
same,PAD4 conversion: Arg,PAD4 [6],98%
same,PAD4 conversion: 1 Cit,PAD4 [6],2%
DSRFYWRGGGKSD [SEQ ID NO: 10],PAD2 conversion: Arg,PAD2 [5],14%
same,PAD2 conversion: 1 Cit,PAD2 [5],14%
same,PAD2 conversion: 2 Cit,PAD2 [5],73%
same,PAD4 conversion: Arg,PAD4 [6],6%
same,PAD4 conversion: 1 Cit,PAD4 [6],69%
same,PAD4 conversion: 2 Cit,PAD4 [6],25%
"N=C(CF)NCCC[C@H](NC(=O)[C@H](CC(=O)O)NC(=O)CN)C(=O)N[C@@H](CO)C(=O)NCC(=O)O [SEQ ID NO: 13, G-D-O(FA)-S-G] (H-GD[Orn(fluoroacetimidoyl)]SG-OH)",IC50,PAD2 [7],17 µM
GGYSGDRSGGGYG [SEQ ID NO: 2],PAD2 conversion: Arg,PAD2 [5],33%
same,PAD2 conversion: 1 Cit,PAD2 [5],67%
same,PAD4 conversion: Arg,PAD4 [6],61%
same,PAD4 conversion: 1 Cit,PAD4 [6],39%
DSYRSWRDGYYSD [SEQ ID NO: 4],PAD2 conversion: Arg,PAD2 [5],16%
same,PAD2 conversion: 1 Cit,PAD2 [5],30%
same,PAD2 conversion: 2 Cit,PAD2 [5],55%
same,PAD4 conversion: Arg,PAD4 [6],1%
same,PAD4 conversion: 1 Cit,PAD4 [6],99%
same,PAD4 conversion: 2 Cit,PAD4 [6],0%
